Target: T1, extracellular domain of mouse PIR-B (Domains 1 to 6), biotinylated (mouse, UniProt P97484 25-642, biotinylated with BirA (site not stated))
T1 construct: The full-length protein is cited as NCBI NM_011095; also called Paired-Immunoglobulin-like Receptor B; PIR-B (extracellular domain)
T1 sequence: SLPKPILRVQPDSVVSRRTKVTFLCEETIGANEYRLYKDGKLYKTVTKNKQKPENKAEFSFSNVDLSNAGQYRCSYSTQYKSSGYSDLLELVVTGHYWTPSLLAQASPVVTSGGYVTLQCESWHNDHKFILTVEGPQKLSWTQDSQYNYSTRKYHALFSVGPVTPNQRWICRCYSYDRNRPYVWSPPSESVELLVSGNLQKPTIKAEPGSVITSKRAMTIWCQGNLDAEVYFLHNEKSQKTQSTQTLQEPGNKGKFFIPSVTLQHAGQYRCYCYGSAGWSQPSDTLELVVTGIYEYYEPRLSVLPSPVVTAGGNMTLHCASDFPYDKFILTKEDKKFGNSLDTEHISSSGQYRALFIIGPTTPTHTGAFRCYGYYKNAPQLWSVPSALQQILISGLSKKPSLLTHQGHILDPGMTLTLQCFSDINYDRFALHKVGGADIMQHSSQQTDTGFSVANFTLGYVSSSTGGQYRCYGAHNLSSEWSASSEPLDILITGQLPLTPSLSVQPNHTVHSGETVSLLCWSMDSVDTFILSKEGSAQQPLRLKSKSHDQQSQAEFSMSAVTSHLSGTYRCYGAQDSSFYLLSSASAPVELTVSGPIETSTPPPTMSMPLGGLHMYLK
Assay: SPR (BIAcore 3000), biotinylated PIR-B extracellular domain on streptavidin chip, HLA-G2 0.10-1.56 µM as analyte, 1:1 binding model
Protocol: Using BIAcore® 3000 (GE healthcare BIAcore), the affinity between HLA-G2 and the extracellular domain of PIR-B prepared as described above was determined in a surface plasmon resonance experiment. Streptavidin was first covalently fixed on a research grade sensor chip, and then the biotinylated extracellular domain of PIR-B or BSA as a negative control was fixed via the streptavidin. Then, a solution of HLA-G [α1-3] dimer in HBS-EP running buffer (10 mM HEPES pH7.5, 150 mM sodium chloride, 3.4 mM EDTA, 0.005% Surfactant P20) was run at 5 μL/min. Kinetics analysis of binding response was performed at various concentrations by subtracting the response measured in a control flow cell from the response measured in a sample flow cell. BIAevaluation version 4.1.1 (GE Healthcare) was used in the analysis.

B1: HLA-G2 (HLA-G [α1-3] dimer; complex of the α1 and α3 domains of the HLA-G molecule) (ligand)
chain: GSHSMRYFSAAVSRPGRGEPRFIAMGYVDDTQFVRFDSDSACPRMEPRAPWVEQEGPEYWEEETRNTKAHAQTDRMNLQTLRGYYNQSEANPPKTHVTHHPVFDYEATLRCWALGFYPAEIILTWQRDGEDQTQDVELVETRPAGDGTFQKWAAVVVPSGEEQRYTCHVQHEGLPEPLMLRW
notes: It was run in SPR as 'HLA-G [α1-3] dimer'; also called α1-3 complex
A Kd of 142 nM was found for B1 in this work.
